In patent US20150191542A1 (INNATE PHARMA S A, published 2015):

T1: MICA*001 extracellular domain α3 recombinant protein (human, UniProt Q29983 205-297)
T1 construct: also called MICA extracellular domain α3 recombinant protein; α3 domain of MICA
T1 sequence: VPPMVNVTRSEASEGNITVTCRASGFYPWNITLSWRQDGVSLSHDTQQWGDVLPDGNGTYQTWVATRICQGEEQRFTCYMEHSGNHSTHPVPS

T2: ULBP1-Fc protein (UniProt Q9BZM6 26-216, limits assumed)
T2 construct: also called ULPB1; not shown: Fc part
T2 sequence (looked up): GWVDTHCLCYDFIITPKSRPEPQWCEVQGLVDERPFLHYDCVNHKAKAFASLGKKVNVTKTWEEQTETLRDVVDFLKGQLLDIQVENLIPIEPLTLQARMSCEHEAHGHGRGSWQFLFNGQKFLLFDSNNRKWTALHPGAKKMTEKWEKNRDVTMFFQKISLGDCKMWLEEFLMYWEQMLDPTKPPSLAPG

T3: ULBP2-Fc protein (UniProt Q9BZM5 26-217, limits assumed)
T3 construct: also called ULPB2; not shown: Fc part
T3 sequence (looked up): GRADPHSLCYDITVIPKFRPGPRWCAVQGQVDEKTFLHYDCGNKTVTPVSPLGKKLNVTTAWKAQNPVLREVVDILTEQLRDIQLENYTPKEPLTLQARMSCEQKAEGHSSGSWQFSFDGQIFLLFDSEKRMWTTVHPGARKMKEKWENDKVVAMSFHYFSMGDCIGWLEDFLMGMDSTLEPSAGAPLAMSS

T4: recombinant human MICA extracellular domain recombinant-Fc protein (MICA*019 allele) (human, UniProt Q29983 24-297)
T4 construct: Bought from R&D Systems; also called MICA*019-Fc; MICA-Fc; not shown: Fc part of the bought fusion protein (R&D Systems)
T4 chain: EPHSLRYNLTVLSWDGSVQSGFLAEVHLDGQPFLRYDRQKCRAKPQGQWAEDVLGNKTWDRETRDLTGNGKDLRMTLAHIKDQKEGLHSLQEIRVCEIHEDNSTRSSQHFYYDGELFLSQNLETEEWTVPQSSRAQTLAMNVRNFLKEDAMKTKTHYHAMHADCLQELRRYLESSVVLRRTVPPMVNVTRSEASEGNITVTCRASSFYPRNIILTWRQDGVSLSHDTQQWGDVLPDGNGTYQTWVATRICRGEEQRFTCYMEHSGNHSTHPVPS


Tests used:
[1] = biological target: T1, MICA*001 extracellular domain α3 …; assay: ELISA, 3 µg/ml recombinant protein coated
Experimental: 3 μg/ml of the indicated MICA recombinant proteins were coated overnight in 96-well plates in PBS 1× at 4° C. All subsequent steps were performed at room temperature. After washes with PBS 1×/Tween 0.05%, plates were saturated for an additional 2 hours in PBS 1×/BSA 1%. Two additional washes were performed prior adding the tested anti-MICA mAb in PBS 1×/BSA 1% for 2 hours. Antibodies were washed and a horseradish peroxidase conjugated goat polyclonal anti-mouse IgG (GAM-HRP) in PBS 1×/BSA 1% was added for 1 hour. Final washing steps were performed and TMB substrate was added to reveal the ELISA (5 to 20 min in the dark) and 1M HCl was added to stop the enzymatic reaction. O.D. was measured at 450 nm.
9C10 binds to MICA extracellular domain recombinant-protein but not MICA extracellular domain α3 recombinant protein. Antibody 16A8, however, bound to both MICA extracellular domain recombinant protein […] MICA extracellular domain α3 recombinant protein. Therefore, it can be concluded from this ELISA experiment that the binding site on MICA of 9C10 antibodies includes the α1 and/or α2 domains while antibody 16A8 binds to MICA within the α3 domain. […] BAMO1 is a commercially available anti-MICA specific for α1α2 domain and BAMO3 is a commercially available anti-MICA specific for α3 domain.

ULBP1-Fc protein = biological target: T2, ULBP1-Fc protein; assay: SPR Biacore T100, biotinylated antibody captured on CAP chip, Fc protein injected
Experimental: (§1) The binding of 9C10, 20C6 and 16A8 to either recombinant human MICA extracellular domain recombinant protein monomers or dimers (MICA*019 allele-Fc protein or MICA*001-His protein) as well as other NKG2D ligands MICB and ULBP1-2 was analyzed by Surface Plasmon Resonance (SPR) using a Biacore T100 apparatus to obtain monovalent and bivalent affinity, respectively. Biotinylated anti-MICA antibodies were injected at a constant rate of 10 μl/min over the Sensor Chip CAP flow-cells comprising Biotin CAPture Reagent. MICA-Fc or MICA-His protein, MICB-Fc, ULBP1-Fc or ULBP2-Fc protein is then injected successively (range of concentrations between 0.01-100 nM), with regeneration between injections, and in increasing order over two flowcells simultaneously. Curves are fitted using Biacore T100 Evaluation software.
(§2) (a) General Biacore T100 methods. SPR measurements were performed on a Biacore T100 apparatus (Biacore GE Healthcare) at 25° C. In all Biacore experiments HBS-EP+ buffer (Biacore GE Healthcare) or 10 mM sodium acetate pH 7.4, 150 mM NaCl, 0.05% P20 served as running buffer and sensorgrams were analyzed with Biaevaluation 4.1 and Biacore T100 Evaluation software. Recombinant human and mouse TLR3 were purchased from R&D Systems.

ULBP2-Fc protein = biological target: T3, ULBP2-Fc protein; assay: as above
Experimental: as §1, §2

[2] = biological target: T4, recombinant human MICA extracellular …; assay: SPR Biacore T100, biotinylated antibody captured on CAP chip, MICA protein injected
Experimental: as §1, §2

| binding result [1] | binding result (ULBP1-Fc protein) | binding result (ULBP2-Fc protein) | binding result [2] | Binder |
| --- | --- | --- | --- | --- |
| no binding | no binding (tested: 0.01-100 nM) | no binding (tested: 0.01-100 nM) | – | antibody 9C10 (antibody, V domains shown, Biotinylated when captured in the SPR assays (9C10-Biot); the sites are not given., Murine hybridoma antibody of IgG2b isotype as tested; also called 9C10-Biot) VH: QVQLQQPGAELVRPGTSVNLSCKASGYSFTRYWMNWVKQRPGQGLEWIGMIHPSDSETRLNQKFKDKATLTVDKSSSTAYMQLSSPTSEDSAVYYCGYGNFFYVMDYWGQGTSVTVSS VL: DILLTQSPAILSVSPGERVSFSCRASQSIGTSIHWYQQRTNGSPRLLIKFASESISGIPSRFSGSGSGTDFTLNINSVESEDIADYYCQQSNFWPFTFGSGTKLEVK |
| – | – | – | binds | antibody 16A8 (antibody, V domains shown, Murine hybridoma antibody of IgG2a isotype as tested; also called 16A8-Biot) VH: EVQLVESGGGLVKPGGSLKLSCAASGFTFSRYAMSWVRQTPEKRLEWVATIFSGGSYTYYPDSVKGRFTISRDNANNTLYLQMSSLKAEDTAMYFCARPNWERTFDYWGQGTTLTVSS VL: not shown |
